Reference: patent publication US20240409645A1 (DUALYX, published 2024)
Changes are numbered by the printed parent chain. Values belong to the binder of their own block, whether it stands above or below them.

Legend:
[1] = target: T1, cynomolgus monkey IL-2Rβ/CD122 subunit (cynomolgus monkey, UniProt Q38J85 27-239, limits assumed); experiment: ELISA, bivalent; EC50 cyno vs human subunit
T1 construct: also called Cyno IL-2R subunit
T1 sequence (looked up): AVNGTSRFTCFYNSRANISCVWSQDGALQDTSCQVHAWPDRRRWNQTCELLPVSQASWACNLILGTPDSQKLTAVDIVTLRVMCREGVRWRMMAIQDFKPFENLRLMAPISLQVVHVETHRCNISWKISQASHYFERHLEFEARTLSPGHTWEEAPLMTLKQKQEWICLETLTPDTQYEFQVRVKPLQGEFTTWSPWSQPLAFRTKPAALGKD
Protocol: (§1) Monospecific monovalent and bivalent IL-2Rα-, IL-2Rβ- and IL-2Rγ-specific antibodies that were selected on human IL-2R subunits, were evaluated for their cross-reactivity in an ELISA. Human and cynomolgus monkey receptor subunits (Acrobiosystems, KactusBiosystems) were coated at 1 μg/mL in PBS (pH 7.4) in a Maxisorp plate (Nunc) and incubated overnight at 4° C. The plates were further washed with PBS-Tween pH 7.4 and incubated with 1% cascin/PBS-Tween blocking solution for 1 hour shaking at 400 rpm. Subsequently, the plate was washed three times with PBS-Tween pH 7.4, after which the test antibodies diluted in 0.1% casein/PBS-Tween were added to the plate and incubated for 1 hour. The plate was again washed three times, after which goat anti-human IgG Fc (HRP) detection antibody (abcam) was added to the plate and incubated for 30 min. The colouring reaction was performed with TMB (Sigma-Aldrich) and stopped with 0.5N H₂SO₄.
(§2) Absorbance was measured at 450 nm with the reference wavelength of 620 nm using spectrophotometer. Final analysis and graphic output were performed with GraphPad Prism version 8 (GraphPad Software). The dose-response binding curves were fit to a nonlinear regression model (log (agonist) vs. response with a variable slope (four parameters)).

[2] = target: T1, cynomolgus monkey IL-2Rβ/CD122 subunit; experiment: ELISA, bivalent VHH-hFc
Protocol: as §1, §2

[3] = target: T2, human interleukin-2 receptor β-chain (IL-2Rβ; CD122), recombinant protein (human, UniProt P14784 27-240); experiment: ELISA, bivalent VHH-hFc
T2 construct: also called human IL-2R subunit CD122
T2 sequence: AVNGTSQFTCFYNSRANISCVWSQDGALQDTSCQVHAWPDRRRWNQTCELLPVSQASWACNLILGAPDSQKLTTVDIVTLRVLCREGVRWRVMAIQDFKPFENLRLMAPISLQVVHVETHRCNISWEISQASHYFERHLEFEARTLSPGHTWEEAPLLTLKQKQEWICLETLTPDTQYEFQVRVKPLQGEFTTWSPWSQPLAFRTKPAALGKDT
Protocol: as §1, §2

mouse IL-2Rα [4] = target: T3, mouse IL-2Rα (mouse, UniProt P01590 22-236, limits assumed); experiment: ELISA, P.E. on coated antigen
T3 construct: recombinant protein; also called mo IL-2R; mouse IL-2Ra
T3 sequence (looked up): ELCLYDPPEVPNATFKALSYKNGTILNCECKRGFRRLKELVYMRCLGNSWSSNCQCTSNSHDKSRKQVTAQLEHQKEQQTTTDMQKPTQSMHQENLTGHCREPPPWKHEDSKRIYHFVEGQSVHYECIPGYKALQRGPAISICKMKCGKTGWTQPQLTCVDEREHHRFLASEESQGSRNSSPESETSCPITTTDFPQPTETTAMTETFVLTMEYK
Summary of the method: (§3)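 Direct-coat ELISA: receptor protein o/n 4° C → 4% Marvel/PBS block 1 h → P.E. 1:5 in 1% Marvel/PBS, 1 h → OD450 vs neg. controls.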

human IL-2Rα [5] = target: T4, human IL-2Rα (human, UniProt P01589 22-240, limits assumed); experiment: ELISA, P.E. on coated antigen
T4 construct: recombinant protein; also called hu IL-2R; human IL-2Ra
T4 sequence: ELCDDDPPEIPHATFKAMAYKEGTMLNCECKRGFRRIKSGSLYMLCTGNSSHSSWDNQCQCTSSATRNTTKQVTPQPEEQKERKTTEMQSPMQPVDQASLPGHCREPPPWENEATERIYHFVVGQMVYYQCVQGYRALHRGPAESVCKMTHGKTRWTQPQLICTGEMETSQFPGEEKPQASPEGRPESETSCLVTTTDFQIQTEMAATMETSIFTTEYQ
Summary of the method: as §3

mouse IL-2Rα [6] = target: T3, mouse IL-2Rα; experiment: SPR, P.E. on immobilised antigen
Summary of the method: (§4)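 Immobilised receptor density: ~2500 RU (CM5, amine coupling). Analyte: VHH-containing P.E., 30 uL/min. Read-out: off-rate over 120s.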

human IL-2Rα [7] = target: T4, human IL-2Rα; experiment: SPR, P.E. on immobilised antigen
Summary of the method: as §4

binding result [2]: no binding
EC50 [3]: 0.218 nM
B5: 20-MP03F10 VHH-hFc, monospecific bivalent (Fc fusion)
chain: EVQLVESGGGLVQAGGSLRLSCAASGRDFSSYAMGWFRQAPGKEREFVVAITWTKRSTDFPDSVKGRFTISRDNAKNTVYLDMNSLKPEDTAVYYCASARGLPVTPLGDIIYWGEGTLVTVSS
notes: IgG1 Fc LALA-PG; not shown: human IgG1 CH2 and CH3 domains (Fc)

OD (PE binding ELISA) (mouse IL-2Rα [4]): 0.045 OD450 nm
OD (PE binding ELISA) (human IL-2Rα [5]): 2.15 OD450 nm
koff (mouse IL-2Rα [6]): 0.0114 s⁻¹
koff (human IL-2Rα [7]): 0.00103 s⁻¹
B7: FJ1427_P035MP05B05 (VHH)
VHH: EVQLVESGGGLVQAGGSLRLSCAASGFTFDGYAVGWFRQAPGKEPEGVSYITGSDGVTYYIDSVKGRFTISSDNAKRTVYLQMNTLKPEDTAVYYCAVDRLGSQGRYASSWWRAGDMDFWGKGTLVTVSS
notes: periplasmic extract; also called clone nr

OD (PE binding ELISA) (mouse IL-2Rα [4]): 0.071 OD450 nm
OD (PE binding ELISA) (human IL-2Rα [5]): 0.63 OD450 nm
koff (mouse IL-2Rα [6]): 0.00403 s⁻¹
koff (human IL-2Rα [7]): 0.00406 s⁻¹
B10: FJ1427_P035MP05C10 (VHH)
VHH: QLQLVESGGGLVQTGGSLRLSCSTSGFTFDGYAIGWFRQAPGKEPEGVSYITGSDGSTYYADSVKGRFTISSDNAKNTVYLHMNSLKPDDAAVYYCAIDRLGSGGAYVPIWWRSSDMDLWGKGTLVTVSS
notes: as for B7

Second part, the binder before the results:

B1: 17-MP02C09 VHH-hFc, monospecific bivalent (Fc fusion)
chain: QVQLQESGGGLVQAGGSLRLSCVASGSVSSINGMAWYRQGADNQRVLVAAISRVGNTAYGDSVKGRFTISRQNARNTVYLQMNSLKPEDTAVYYCNADSWGGDDYWGQGTQVTVSS
notes: IgG1 Fc LALA-PG; also called anti-IL-2Rβ Ab 17; not shown: human IgG1 CH2 and CH3 domains (Fc)
Fold change [1]: 1.5 fold
EC50 [2]: 0.184 nM
EC50 [3]: 0.124 nM

B2: 19-MP03F08 VHH-hFc, monospecific bivalent (Fc fusion)
chain: EVQLVESGGGLVQTGGSLRLSCAASGGTFSRDAMAWFRQVPGKEREFVALISWSGATTNYADSVKGRFAISRDNGKNTVYLQMNRLKPADTAIYYCAADRRPMGSRSYFEPTEYDDWGQGTQVTVSS
notes: as for B5
Fold change [1]: 0.8 fold
EC50 [2]: 0.603 nM
EC50 [3]: 0.794 nM

B3: 16-MP02B08 VHH-hFc, monospecific bivalent (Fc fusion)
chain: EVQLVESGGGLVQAGGSLRLSCAASGRAIENYPVGWFRQAPGKEREFVAAITWISGSTLYADSVKGRFTISRDNAKNTVYLQMSSLKPEDTALYYCAAALKTITRGQNDYSYWGQGTQVTVSS
notes: as for B5
Fold change [1]: 0.9 fold
EC50 [2]: 0.23 nM
EC50 [3]: 0.245 nM

B4: FJ1427_P035MP01C11 (VHH)
VHH: QVQLVESGGGLVQAGGSLRLSCAASGGTFRTRNMGWFRRAPGKEREFVAAVSWNVDNKLYAGSVKGRFTISRDNGRNMVYLQMNSLKPEDTAVYYCAADNIPLSSDMRPTATEYDYWGQGTQVTVSS
notes: periplasmic extract; also called clone nr; 83
OD (PE binding ELISA) (mouse IL-2Rα [4]): 0.045 OD450 nm
OD (PE binding ELISA) (human IL-2Rα [5]): 2.78 OD450 nm
koff (mouse IL-2Rα [6]): 0.351 s⁻¹
koff (human IL-2Rα [7]): 0.000556 s⁻¹

B6: 18-MP03C03 VHH-hFc, monospecific bivalent (Fc fusion)
chain: QVQLVESGGGLVQPGGSLRLSCAISGGTLDSYGIGWVRQAPGKQREGVSCMSRSDDRTYYADSVKGRFTISKDSAKNTVYLQMTSLKPEDTAVYYCAAVDAYGCSLVQPTTYDFWGLGTQVTVSS
notes: as for B5
Fold change [1]: 1 fold
EC50 [2]: 0.3 nM
EC50 [3]: 0.294 nM

B8: 24-MP06E05 VHH-hFc, monospecific bivalent (Fc fusion)
chain: QVQLVESGGELVQGGASLRLSCAASGRTFSNANMAWFRQAPEKEREFVALITWSSGSTLYADSVKGRFTISRDNARKMVYLQMNSLKPEDTAVYYCAADGPPYSGTYYRYDTYDYWGQGTQVTVSS
notes: as for B5
Fold change [1]: 1.4 fold
EC50 [2]: 0.265 nM
EC50 [3]: 0.191 nM

B9: FJ1427_P035MP05C09 (VHH)
VHH: B10 VHH with T14A, S23A, T24A, P45R, D73N, G104R
notes: as for B7
OD (PE binding ELISA) (mouse IL-2Rα [4]): 0.059 OD450 nm
OD (PE binding ELISA) (human IL-2Rα [5]): 0.366 OD450 nm
koff (mouse IL-2Rα [6]): 0.00435 s⁻¹
koff (human IL-2Rα [7]): 0.00609 s⁻¹
